Reference: paper PMC3444267

Experiments:
Test in all cases: semi-native SDS-PAGE with anti-HA immunoblot
[1] = biological target: BnGLP3.2:HA (Brassica napus)
[2] = biological target: BnGLP3.1:HA (Brassica napus)
[3] = biological target: BnGLP12.2:HA (Brassica napus)
[4] = biological target: BnGLP8:HA (Brassica napus)
[5] = biological target: BnGLP12.1:HA (Brassica napus)

## BnGLP3.2:HA (natural protein)
[1]
  stoichiometry N: 6

## BnGLP3.1:HA (natural protein)
[2]
  stoichiometry N: 6

## BnGLP12.2:HA (natural protein)
[3]
  stoichiometry N: 6

## BnGLP8:HA (natural protein)
[4]
  stoichiometry N: 6

## BnGLP12.1:HA (natural protein)
[5]
  stoichiometry N: 6
